The supplement of paper PMC9170038

Key:
MS2 coat protein [1] = test: apparent KD of MS2 coat protein, switch OFF state (with FMN for OFF switches, without FMN for ON switches); designed switch direction (-1 OFF switch, 1 ON switch): 1; higher = weaker reporter binding; conditions: FMN input: 0 or 200 uM; Eterna round: R93 (includes R88 designs)
Outline: (§1)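 Each design's apparent KD comes from the median of binding-curve fits to its normalised clusters. Those clusters carried RNA switches transcribed on-chip from Illumina sequencing clusters. SNAP-549-labelled MS2 coat protein was titrated onto them in twofold steps (0.7 or 1.5 nM to 3 µM; per step 0.8–1.5 h down to 10–20 min). Conditions were 100 mM Tris-HCl pH 7.5, 80 mM KCl, 4 mM MgCl2, without or with constant ligand.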

MS2 coat protein [2] = test: apparent KD of MS2 coat protein, switch ON state; designed switch direction (-1 OFF switch, 1 ON switch): 1; higher = weaker reporter binding; conditions: FMN input: 0 or 200 uM; Eterna round: R93 (includes R88 designs)
Outline: as §1

Sequence | apparent KD of MS2 coat protein (MS2 coat protein [1]) [nM] | apparent KD of MS2 coat protein (MS2 coat protein [2]) [nM]
UAUCAUUACACGAAGGAUAUCGAAAAAAGAACAUGAGGAUCACCCAUGUAAAAUAAAACACAGAACGAGAAGGUCGAGGGUGAAG [JR_SS002_Sub701] | 34.2 | 15.8
CGCGAACAUGAGGAUCACCCAUGUGAAAAACAUAGAGGAUAUGUCGCAUGCGUGUAAAAGACAGAAGGCUAUCGCG [Normal (21/22)] | 72.5 | 22.8
AGGAAACAUGAGGAUCACCCAUGUAAAAAUAUGGGAGGAUAUGGAAACACGAAAGUGAAACCAGAAGGCCCGAAAA [77%, Mat - Mod of Eli, 18] | 23.9 | 17.1
GAUAAACAUGAGGAUCACCCAUGUAGAUAUAUGGGAGGAUAUACAUAGACGAUAGUCAUAGUAGAAGGCCUAAUAG [77%, Mat - Mod of Eli - With 6 more U's] | 119 | 35.6
GAAAAACAUGAGGAUCACCCAUGUGAGAAUAUGGAAGGAUAUACAAAGACGAGAGUCAAAGUAGAAGGUCUAAAAG [Mat - Same State 1 - Eli mod - D21] | 31.7 | 22.1
AAAAAACAUGAGGAUCACCCAUGUGCAAAAUUCGCAGGAUAUCCCUUUUUUAAAUGGGAGGGAGAAGGGUGAAAAA [Nob's Hobby 17 - Jieux - Same State 1] | 76 | 23.7
ACUACACAUGAGGAUCACCCAUGUCAGGUGGGACUAGGAUAUUAUAAACCAGAGUAAAAAUAAGAAGGAGUAGAAA [JR_SS001_Sub308] | 46.6 | 51.8
GACUGCGAUGUGAAGGAUAUCCGCGACUGGACAUGAGGAUCACCCAUGUAUGCUUAGAACAUGCCGGAGAAGGUCACGAAUGAUU [JR_SS002_Sub1217] | 32.3 | 20.6
UAUCAUUACACGAAGGAUAUCGAAAAAAGAACAUGAGGAUCACCCAUGUGAAAUAAAAUACAGAACGAGAAGGUCGAGGGUGAAG [JR_SS002_Sub702] | 30.3 | 23.1
GAUUACAUAGUUCAGGAUAUAUGAAUAGUCACAUGAGGAUCACCCAUGUCCAUUUAUAUGGGCACAUAGAAGGGAGGUAGGGAUC [Mat - Same state - Malcolm Mod - D148] | 571 | 392
AAAUAAAUGACUAAGGAUAUAUCAGAGAAAACAUGAGGAUCACCCAUGUAAUAAUAAAAAGGGUGAUAGAAGGUAGUCAACAAACA [Pariah 4 (MS2 Riboswitches - Same State 2)] | 154 | 26
AAAGAAAAACUAGAGGAUAUUUGAGUGGUAACAUGAGGAUCACCCAUGUGAAGAAAGGAGCAUGAGGAGAAGGCUAGAAGAAAAA [JL Nando mod 23] | 68.7 | 21.5
GCAGGGCUAAACUAGGAUAUGGGUGUCUAGACAUGAGGAUCACCCAUGUGAUGGCAAAACAAAGCUCAGAAGGAGUGGUAGCCCA [Quendi] | 75.4 | 11.9
AACCAACAUGAGGAUCACCCAUGUAGAAAUAUGGGAGGAUAUACAAACACGAAAGUGAAAGUAGAAGGCCUAAAAG [77%, Mat - Mod of Eli, 6] | 125 | 22.5
AUAUGGGCCCAUCAGGAUAUGUUCGGCGGAACAUGAGGAUCACCCAUGUGACAAAAGACGCCCACGCAGAAGGGAUUACAGGCAA [Anistera] | 49.7 | 22
GUAAAACAUGAGGAUCACCCAUGUAGAAAUAUGGGAGGAUAUACGAAGACGAAAGUCAAAGUAGAAGGCCUAAAGU [Mat - Same State 1 - Eli mod - D111] | 54.9 | 26.1
AAGAAACAUGAGGAUCACCCAUGUGAUAAUAUGGGAGGAUAUACGAAGUCGAAAGUCGAAGUAGAAGGCCUAAGAA [Garnet 41] | 186 | 49
AAAAUACAUGAGGAUCACCCAUGUGAAAAUAUGGAAGGAUAUACGAAAAAUAAAUAAAACGUAGAAGGUCUAAAAA [SS! 1 MT 3] | 38.4 | 23.8
AGAAAUAAACCUCAGGAUAUGGGUAAGAAAACAUGAGGAUCACCCAUGUAAAAGAAAAUAAAAAACCAGAAGGGAGAAAAUAAAG [Reversing G segment in JL's winner (80%) Variant 2] | 41.3 | 31.3
AAAAUACAUGAGGAUCACCCAUGUGAAAAUAUGGAAGGAUAUCAAUGCAAAAAAAAGCAUUGAGAAGGUCCAAAAA [SS! 1 MT 8] | 26.9 | 16.7
AAAAAAAAAAGGCAGGAUAUCCAAAAAAAAACAUGAGGAUCACCCAUGUAAAAAAAAAAAAAAUGGGAGAAGGGCCAAAAAAAAA [Mat - Same State 2 - Rerun Eli mod - D85] | 64.4 | 63.1
